Several values for one entry are separate records, joined by “and”; a condition that tells them apart may be missing. Identical values can stand only once. Where no end group is shown, it is not given here.

For test [1], the target named is T1, MAF (Homo sapiens, UniProt O75444). In words: FRET or BRET; direct-binding FRET in 384-well plates; rhodamine-labelled design (acceptor) titrated 0 to 1 uM into 10 nM fluorescein-labelled bZIP (donor); 150 mM KCl, 50 mM potassium phosphate pH 7.4, 0.1% Tween-20, 0.1% BSA; 4 °C.
Test [2] has as its target T2, ATF6B (Homo sapiens, UniProt Q99941). The test is described as above.
Test [3] addresses X-box binding protein 1 (human) (UniProt P17861). The test is described as above.
Test [4] has as its target T3, MAFB (Homo sapiens, UniProt Q9Y5Q3). Described as above.
Test [5] deals with ATF5 (human) (UniProt Q9Y2D1). Described as above.
For test [6], the target named is ATF2 (human) (UniProt P15336). The description is as above.
In test [7] the target is MAFF (human) (UniProt Q9ULX9). The description is as above.
Test [8] has as its target T4, JUN (Homo sapiens, UniProt P05412). The description is as above.
Test [9] addresses ATF4 (human) (UniProt P18848). Description: FRET or BRET; direct-binding FRET in 384-well plates; rhodamine-labelled design (acceptor) titrated 0 to 1 uM into 10 nM fluorescein-labelled bZIP (donor); 150 mM KCl, 50 mM potassium phosphate pH 7.4, 0.1% Tween-20, 0.1% BSA; 23 °C.
For test [10], the target named is T1, MAF. The test is described as above.
In test [11] the target is T2, ATF6B. The description is as above.
For test [12], the target named is MAFF (human) (UniProt Q9ULX9). The test is described as above.
The target of test [13] is T5, FOS (Homo sapiens, UniProt P01100). In words: FRET or BRET; direct-binding FRET in 384-well plates; rhodamine-labelled design (acceptor) titrated 0 to 1 uM into 10 nM fluorescein-labelled bZIP (donor); 150 mM KCl, 50 mM potassium phosphate pH 7.4, 0.1% Tween-20, 0.1% BSA; 37 °C.
Test [14] has as its target BATF (human) (UniProt Q16520). The test is described as above.
For test [15], the target named is T3, MAFB. The description is as above.
Test [16] concerns the target BATF2 (human) (UniProt Q8N1L9). The description is as above.
Test [17] concerns the target MAFF (human) (UniProt Q9ULX9). The description is as above.
Test [18] addresses Activating Transcription Factor (ATF) 3 (human) (UniProt P18847). In words: FRET or BRET; direct-binding FRET in 384-well plates; rhodamine-labelled design (acceptor) titrated 0 to 1 uM into 10 nM fluorescein-labelled bZIP (donor); 150 mM KCl, 50 mM potassium phosphate pH 7.4, 0.1% Tween-20, 0.1% BSA; 4 °C.
Test [19] concerns the target T5, FOS. The test is described as above.
Test [20] addresses DBP (human) (UniProt Q10586). The test is described as above.
In test [21] the target is ATF4 (human) (UniProt P18848). Description: FRET or BRET; direct-binding FRET in 384-well plates; rhodamine-labelled design (acceptor) titrated 0 to 1 uM into 10 nM fluorescein-labelled bZIP (donor); 150 mM KCl, 50 mM potassium phosphate pH 7.4, 0.1% Tween-20, 0.1% BSA; 37 °C.
Test [22] has as its target T4, JUN. The test is described as above.
The target in test [23] is T4, JUN. Description: FRET or BRET; direct-binding FRET in 384-well plates; rhodamine-labelled design (acceptor) titrated 0 to 1 uM into 10 nM fluorescein-labelled bZIP (donor); 150 mM KCl, 50 mM potassium phosphate pH 7.4, 0.1% Tween-20, 0.1% BSA; 23 °C.
In test [24] the target is MAFG (Homo sapiens, UniProt O15525). In words: FRET or BRET; direct-binding FRET in 384-well plates; rhodamine-labelled design (acceptor) titrated 0 to 1 uM into 10 nM fluorescein-labelled bZIP (donor); 150 mM KCl, 50 mM potassium phosphate pH 7.4, 0.1% Tween-20, 0.1% BSA; 37 °C.
Test [25] deals with NFE2 (human) (UniProt Q16621). The description is as above.
Test [26] has as its target CREB1 (human) (UniProt P16220). The description is as above.
For test [27], the target named is T2, ATF6B. The description is as above.
In test [28] the target is Activating Transcription Factor (ATF) 3 (human) (UniProt P18847). The description is as above.
Test [29] concerns the target X-box binding protein 1 (human) (UniProt P17861). The test is described as above.
For test [30], the target named is NFE2L3 (human) (UniProt Q9Y4A8). The test is described as above.

Chain of MAFF (human) (Q9ULX9 whole entry): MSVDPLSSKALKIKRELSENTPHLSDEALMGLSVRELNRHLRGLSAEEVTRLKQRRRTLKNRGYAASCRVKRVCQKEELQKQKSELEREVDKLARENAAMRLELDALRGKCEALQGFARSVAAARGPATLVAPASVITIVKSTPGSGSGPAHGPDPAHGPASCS
Chain of ATF4 (human) (P18848 whole entry): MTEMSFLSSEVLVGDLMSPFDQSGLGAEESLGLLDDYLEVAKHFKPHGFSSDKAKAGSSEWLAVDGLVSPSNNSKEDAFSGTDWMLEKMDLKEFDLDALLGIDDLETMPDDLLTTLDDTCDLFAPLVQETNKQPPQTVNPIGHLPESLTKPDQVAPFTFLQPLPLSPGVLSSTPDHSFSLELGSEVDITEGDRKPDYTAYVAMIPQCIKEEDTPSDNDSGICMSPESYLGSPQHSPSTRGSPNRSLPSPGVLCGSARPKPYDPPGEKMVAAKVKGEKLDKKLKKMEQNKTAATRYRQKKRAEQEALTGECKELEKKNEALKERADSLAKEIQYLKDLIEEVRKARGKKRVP
T5 sequence (P01100 whole entry): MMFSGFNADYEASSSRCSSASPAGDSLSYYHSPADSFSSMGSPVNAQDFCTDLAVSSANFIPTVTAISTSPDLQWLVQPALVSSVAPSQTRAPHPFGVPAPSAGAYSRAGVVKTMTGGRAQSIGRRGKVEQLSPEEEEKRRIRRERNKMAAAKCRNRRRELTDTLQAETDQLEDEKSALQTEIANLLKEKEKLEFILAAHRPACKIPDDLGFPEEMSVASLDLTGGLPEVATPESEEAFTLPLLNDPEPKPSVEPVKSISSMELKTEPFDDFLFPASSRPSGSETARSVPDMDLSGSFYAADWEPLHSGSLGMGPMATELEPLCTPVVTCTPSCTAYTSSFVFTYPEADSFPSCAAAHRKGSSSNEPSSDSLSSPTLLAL
T4 sequence (P05412 whole entry): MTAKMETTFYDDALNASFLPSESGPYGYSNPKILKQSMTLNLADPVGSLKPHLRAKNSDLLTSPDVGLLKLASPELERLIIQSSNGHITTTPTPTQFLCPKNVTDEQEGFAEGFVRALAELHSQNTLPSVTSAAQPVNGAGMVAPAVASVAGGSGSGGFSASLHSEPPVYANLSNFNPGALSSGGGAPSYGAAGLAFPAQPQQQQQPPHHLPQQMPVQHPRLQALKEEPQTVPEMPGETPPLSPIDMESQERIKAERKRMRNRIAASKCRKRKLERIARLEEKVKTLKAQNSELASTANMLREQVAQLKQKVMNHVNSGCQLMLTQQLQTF
T2 sequence (Q99941 whole entry): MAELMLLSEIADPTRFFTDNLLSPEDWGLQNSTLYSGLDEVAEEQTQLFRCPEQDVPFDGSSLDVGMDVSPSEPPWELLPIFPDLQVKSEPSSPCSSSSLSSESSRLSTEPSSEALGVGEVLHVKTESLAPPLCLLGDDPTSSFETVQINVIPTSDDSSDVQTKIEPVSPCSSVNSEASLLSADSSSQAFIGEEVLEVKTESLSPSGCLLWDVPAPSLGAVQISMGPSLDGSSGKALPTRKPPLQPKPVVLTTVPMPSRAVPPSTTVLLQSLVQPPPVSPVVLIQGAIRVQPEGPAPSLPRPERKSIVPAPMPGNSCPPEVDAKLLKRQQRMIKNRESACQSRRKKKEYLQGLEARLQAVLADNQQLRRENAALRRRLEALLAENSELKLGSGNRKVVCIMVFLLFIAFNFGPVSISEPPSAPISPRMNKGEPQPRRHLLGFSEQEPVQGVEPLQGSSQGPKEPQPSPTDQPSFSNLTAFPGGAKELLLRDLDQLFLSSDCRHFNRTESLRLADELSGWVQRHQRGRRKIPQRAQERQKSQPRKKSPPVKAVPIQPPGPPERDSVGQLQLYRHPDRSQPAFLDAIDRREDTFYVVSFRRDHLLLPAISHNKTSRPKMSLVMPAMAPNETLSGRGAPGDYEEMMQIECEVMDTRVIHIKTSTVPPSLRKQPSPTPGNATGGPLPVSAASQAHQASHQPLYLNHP
T1 sequence (O75444 whole entry): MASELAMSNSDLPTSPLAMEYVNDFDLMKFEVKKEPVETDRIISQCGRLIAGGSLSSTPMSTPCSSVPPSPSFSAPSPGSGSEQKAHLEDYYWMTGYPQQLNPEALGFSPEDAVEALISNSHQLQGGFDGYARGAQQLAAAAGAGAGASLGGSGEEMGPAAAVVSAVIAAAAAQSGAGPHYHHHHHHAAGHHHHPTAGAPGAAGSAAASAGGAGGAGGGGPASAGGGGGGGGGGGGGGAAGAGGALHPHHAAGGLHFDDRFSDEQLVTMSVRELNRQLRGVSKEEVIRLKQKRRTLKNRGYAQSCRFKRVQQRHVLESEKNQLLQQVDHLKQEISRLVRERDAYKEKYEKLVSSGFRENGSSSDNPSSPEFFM
Chain of Activating Transcription Factor (ATF) 3 (human) (P18847 whole entry): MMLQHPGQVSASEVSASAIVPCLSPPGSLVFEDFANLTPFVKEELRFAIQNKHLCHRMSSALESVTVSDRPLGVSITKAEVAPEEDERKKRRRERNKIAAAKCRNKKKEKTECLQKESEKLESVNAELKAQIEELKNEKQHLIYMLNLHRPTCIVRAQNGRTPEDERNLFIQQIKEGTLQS
T3 sequence (Q9Y5Q3 whole entry): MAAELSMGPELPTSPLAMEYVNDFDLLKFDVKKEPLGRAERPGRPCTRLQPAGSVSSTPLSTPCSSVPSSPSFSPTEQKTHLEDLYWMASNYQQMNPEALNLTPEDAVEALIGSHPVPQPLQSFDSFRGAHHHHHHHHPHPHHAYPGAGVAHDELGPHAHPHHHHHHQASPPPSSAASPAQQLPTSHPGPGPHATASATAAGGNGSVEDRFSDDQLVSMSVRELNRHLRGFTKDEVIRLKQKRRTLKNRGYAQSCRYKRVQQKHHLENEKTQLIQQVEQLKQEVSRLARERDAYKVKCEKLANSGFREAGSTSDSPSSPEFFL
Chain of ATF5 (human) (Q9Y2D1 whole entry): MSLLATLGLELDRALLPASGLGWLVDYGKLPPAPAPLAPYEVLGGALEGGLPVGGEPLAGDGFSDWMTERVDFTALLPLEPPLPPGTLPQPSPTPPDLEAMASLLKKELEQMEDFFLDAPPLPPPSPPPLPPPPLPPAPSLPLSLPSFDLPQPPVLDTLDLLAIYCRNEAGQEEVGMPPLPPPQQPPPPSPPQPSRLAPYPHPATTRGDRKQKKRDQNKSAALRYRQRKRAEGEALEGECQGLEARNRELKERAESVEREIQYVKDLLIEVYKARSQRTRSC
Chain of X-box binding protein 1 (human) (P17861 whole entry): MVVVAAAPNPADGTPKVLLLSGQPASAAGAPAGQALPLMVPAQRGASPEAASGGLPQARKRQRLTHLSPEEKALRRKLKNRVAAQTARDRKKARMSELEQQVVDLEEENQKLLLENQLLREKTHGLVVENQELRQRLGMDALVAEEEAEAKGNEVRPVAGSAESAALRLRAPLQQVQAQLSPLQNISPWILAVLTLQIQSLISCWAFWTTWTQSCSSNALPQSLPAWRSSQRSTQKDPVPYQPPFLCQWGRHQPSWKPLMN
Chain of BATF (human) (Q16520 whole entry): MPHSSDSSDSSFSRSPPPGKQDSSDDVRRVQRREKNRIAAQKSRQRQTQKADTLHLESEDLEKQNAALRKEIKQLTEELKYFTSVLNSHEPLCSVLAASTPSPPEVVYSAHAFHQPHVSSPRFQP
Chain of DBP (human) (Q10586 whole entry): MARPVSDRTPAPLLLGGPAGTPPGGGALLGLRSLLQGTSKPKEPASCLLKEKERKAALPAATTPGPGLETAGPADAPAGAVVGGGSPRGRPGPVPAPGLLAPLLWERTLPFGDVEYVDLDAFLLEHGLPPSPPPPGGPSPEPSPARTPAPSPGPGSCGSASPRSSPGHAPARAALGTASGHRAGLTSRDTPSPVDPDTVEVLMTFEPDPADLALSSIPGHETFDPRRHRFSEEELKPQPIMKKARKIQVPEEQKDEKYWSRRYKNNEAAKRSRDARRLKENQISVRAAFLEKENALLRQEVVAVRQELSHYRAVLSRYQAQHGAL
Chain of MAFG (O15525 whole entry): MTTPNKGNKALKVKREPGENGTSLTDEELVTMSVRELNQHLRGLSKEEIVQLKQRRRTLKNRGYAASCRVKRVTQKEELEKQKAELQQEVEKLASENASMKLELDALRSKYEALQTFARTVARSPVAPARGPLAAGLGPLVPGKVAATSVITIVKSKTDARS
Chain of CREB1 (human) (P16220 whole entry): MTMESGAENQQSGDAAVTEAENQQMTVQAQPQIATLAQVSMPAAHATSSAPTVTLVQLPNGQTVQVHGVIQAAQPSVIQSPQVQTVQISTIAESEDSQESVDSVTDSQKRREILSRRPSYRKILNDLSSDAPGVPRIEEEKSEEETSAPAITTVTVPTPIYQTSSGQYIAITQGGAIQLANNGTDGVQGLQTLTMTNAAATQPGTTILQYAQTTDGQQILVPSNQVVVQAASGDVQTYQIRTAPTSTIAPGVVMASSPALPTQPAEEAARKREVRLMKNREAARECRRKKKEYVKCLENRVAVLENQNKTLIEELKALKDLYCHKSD
Chain of NFE2 (human) (Q16621 whole entry): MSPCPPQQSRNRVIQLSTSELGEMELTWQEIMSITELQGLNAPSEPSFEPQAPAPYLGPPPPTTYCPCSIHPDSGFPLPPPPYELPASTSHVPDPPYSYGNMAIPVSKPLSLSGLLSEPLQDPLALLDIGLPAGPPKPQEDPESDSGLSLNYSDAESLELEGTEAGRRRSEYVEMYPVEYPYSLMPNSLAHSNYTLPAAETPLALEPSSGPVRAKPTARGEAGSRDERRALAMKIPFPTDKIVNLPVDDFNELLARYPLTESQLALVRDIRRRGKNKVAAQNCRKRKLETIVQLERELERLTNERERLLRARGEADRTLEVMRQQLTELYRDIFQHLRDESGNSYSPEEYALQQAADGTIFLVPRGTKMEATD

B1: ATF5-d1 labeled at the N-terminus (designed binder)
chain: GESKEYKKGSGSC(Rhodamine Red C2‑maleimide)GKRIAYLRQRIAELRNENHVLESRIQRMEKEKDALQQDRDHLEYEL
Consider B1, for which the dissociation constant (Kd) was over 5000 nM in test [1]; over 5000 nM in test [2]; over 5000 nM in test [3]; over 5000 nM in [4]; 2.9 nM and 6.9 nM in [5]; over 5000 nM in test [6]. Further, the Kd was over 5000 nM in test [7]; over 5000 nM in test [8]; 8.5 nM in [9]; over 5000 nM in test [10]; over 5000 nM in test [11]; over 5000 nM in test [12]. Moreover, the dissociation constant (Kd) in test [13] is over 5000 nM; in test [14] it was over 5000 nM; in test [15], over 5000 nM; in [16], over 5000 nM; in test [17], 116 nM.

B2: JUN-d1 labeled at the C-terminus (designed binder)
chain: GESKEYKKGSGSSIAATLEKEEANLEKMNKKLAAEIESLLKEKDKLESVLNYHEGC
modifications: also: Cys56: Rhodamine Red C2-maleimide or fluorescein-5-maleimide, by assay
Take B2: the Kd was over 5000 nM in [18]; over 5000 nM in test [19]; over 5000 nM in [20]; 557 nM and 529 nM and 543 nM in [21]; 5.3 nM and 5.5 nM and 6.6 nM in test [22]; 1.1 nM and 1.2 nM and 1 nM in [23]. Also, the Kd in test [24], in test [25], in test [26], in [27], in test [28] and in [13] was over 5000 nM in each case. Also, the Kd in test [29], in [17] and in test [30] was over 5000 nM in each case.

(Values after paper PMC4335062, “Data-Driven Prediction and Design of bZIP Coiled-Coil Interactions” (PLoS Computational Biology, 2015).)
